Laboratory results reported in patent US11591580B2, “K85 mutation-containing plant EPSPS mutant, and encoding gene and application thereof” (GEVOTO LLC, priority 2017, dated 2023).

B1: G0: wild-type soybean EPSPS represented by SEQ ID NO: 18; control group of Example 7 (protein)
chain: MAAAEKPSTAPEIVLEPIKDISGTITLPGSKSLSNRILLLAALSEGTTVVDNLLYSEDIHYMLGALRTLGLRVEDDQTTKQAIVEGCGGLFPTIKESKDEINLFLGNAGTAMRPLTAAVVAAGGNASYVLDGVPRMRERPIGDLVAGLKQLGADVDCFLGTNCPPVRVNGKGGLPGGKVKLSGSVSSQYLTALLMAAPLALGDVEIEIVDKLISVPYVEMTLKLMERFGVSVEHSGDWDKFLVHGGQKYKSPGNAFVEGDASSASYFLAGAAVTGGTITVNGCGTSSLQGDVKFAEVLEKMGAKVTWSENSVTVTGPPQDSSGQKVLQGIDVNMNKMPDVAMTLAVVALFANGQTTIRDVASWRVKETERMIAICTELRKLGATVEEGPDYCVITPPEKLNVTAIDTYDDHRMAMAFSLAACGDVPVTIKDPGCTRKTFPDYFEVLERFTRH
modifications: Glycine max
B2: R1: rice EPSPS mutant I, SEQ ID NO: 4, containing one mutation K100(85)I (protein)
chain: MASNAAAAAAKAEEIVLQPIREISGAVQLPGSKSLSNRILLLSALSEGTTVVDNLLNSEDVHYMLEALKALGLSVEADKVAKRAVVVGCGGKFPVEKDAIEEVQLFLGNAGTAMRPLTAAVTAAGGNATYVLDGVPRMRERPIGDLVVGLKQLGADVDCFLGTECPPVRVKGIGGLPGGKVKLSGSISSQYLSALLMAAPLALGDVEIEIIDKLISIPYVEMTLRLMERFGVKAEHSDSWDRFYIKGGQKYKSPGNAYVEGDASSASYFLAGAAITGGTVTVQGCGTTSLQGDVKFAEVLEMMGAKVTWTDTSVTVTGPPREPYGKKHLKAVDVNMNKMPDVAMTLAVVALFADGPTAIRDVASWRVKETERMVAIRTELTKLGASVEEGPDYCIITPPEKLNITAIDTYDDHRMAMAFSLAACADVPVTIRDPGCTRKTFPNYFDVLSTFVRN
modifications: Oryza sativa EPSPS mutant with mutation K100(85)I

Legend:
double knockout E. coli = assay: growth of E. coli transformed by genes encoding soybean EPSPS (wild type and mutants) in culture media containing different glyphosate concentrations (Example 7, FIG. 3); type: cell-based; conditions: culture media containing 1 mM glyphosate
[1] = tested on: transgenic rice seedlings; assay: glyphosate resistance of the EPSPS mutant in transgenic rice plants sprayed with glyphosate (Example 8, Table 1); type: in vivo, rice (Nipponbare); conditions: for glyphosate resistance of transformed rice seedlings (in words): glyphosate sprayed at the 1× dosage
Source text: A method for detecting the glyphosate resistance of the G1 soybean EPSPS mutant (SEQ ID NO: 20), G2 soybean EPSPS mutant (SEQ ID NO: 22) and G3 soybean EPSPS mutant (SEQ ID NO: 24) provided in Example 7, the R1 rice EPSPS mutant (SEQ ID NO: 4) provided in Example 5, and the Z1 maize EPSPS mutant (SEQ ID NO: 12) provided in Example 6 in the transgenic rice is as follows:
The plasmids (containing the EPSPS mutant gene) of the monoclonal resistant bacteria of pADV5-EPSPS in Examples 1-7 were extracted by a conventional method, followed by double enzyme digestion by Pac1 and BstEII, the small fragments were collected, and then the small fragments were ligated, using T4 DNA ligase, to the pGVP1 vectors that had undergone the same double enzyme digestion, to obtain a pGVP1-EPSPS vector having a structure as shown in FIG. 8.
In the present example, the glyphosate resistance of the EPSPS mutant in transgenic rice plants were verified. An experiment method is as follows:
The transgenic rice seedlings transplanted were uniformly arranged in a same experiment area (preventing leaves from overlapping). The areas occupied by the experiment groups and the control group were calculated, and according to the areas, glyphosate was sprayed at a 1× dosage of 1060 g/hectare (0.106 g/m^2). 2× dosage was 2120 g/hectare, 5× dosage was 5300 g/hectare, and 20× dosage was 21200 g/hectare.
Commercially available Roundup® 41% ammonium glyphosate was used. Roundup® ammonium glyphosate with corresponding volumes was taken according to the above sprayed concentrations, then diluted with 20 times of volume of water, and then uniformly sprayed on the plants in the experiment groups and the control group. After leaf surfaces were dry, the plants were moved into greenhouse or outdoor to cultivate.
After the glyphosate was sprayed at the 1× dosage, growth states of the plants in each group were observed and recorded on a 10th day, and glyphosate was sprayed to the survived plants at the 2× dosage. The growth states of the plants in each group were observed and recorded 10 days later, and glyphosate was sprayed to the survived plants at the 5× dosage. The growth states of the plants in each group were observed and recorded 10 days later, and glyphosate was sprayed to the survived plants at the 20× dosage. The growth states of the plants in each group were observed and recorded 10 days later, and results are shown in Table 1, wherein corresponding numbers of plants denoted by −, +, ++ and +++ are listed, and “%++&+++” is percentage of plant having medium and high glyphosate resistance to the total number of plants observed.

[2] = tested on: EPSPS defective E. coli (E. coli DH5α with EPSPS gene and C-P Lyase gene being knocked out, EDCE); assay: growth of E. coli transformed by genes encoding rice EPSPS (wild type and mutants) in culture media containing different glyphosate concentrations (Example 5, FIG. 1); type: cell-based
Source text: E. coli transformed by the gene (SEQ ID NO: 3) encoding the rice EPSPS mutant I provided in Example 1 was taken as Experiment Group 1 (only containing a mutation K100(85)I).
E. coli transformed by the gene (with a nucleotide sequence represented by SEQ ID NO: 5, and an amino acid sequence of the encoded rice EPSPS mutant is represented by SEQ ID NO: 6) encoding the rice EPSPS mutant that contains only mutations G111(96)A and P116(101)S but no mutation K100(85)I was taken as Experiment Group 2.
E. coli transformed by the gene (SEQ ID NO: 7) encoding the rice EPSPS mutant II provided in Example 2 was taken as Experiment Group 3 (the encoded rice EPSPS mutant II contained three mutations: K100(85)I, G111(96)A and P116(101)S).
E. coli transformed by the gene (SEQ ID NO: 1, which encoded the wild-type rice EPSPS represented by SEQ ID NO: 2) encoding the wild-type rice EPSPS was taken as a control group.
The glyphosate resistance of the gene encoding the rice EPSPS mutant I and the rice EPSPS mutant I encoded thereby in E. coli, and the glyphosate resistance of the gene encoding the rice EPSPS mutant II and the rice EPSPS mutant II encoded thereby in E. coli were verified by detecting the growth situation of the transformed E. coli in culture media (culture media obtained by adding a certain concentration of antibiotics Spec (Spectinomycin), Gen (Gentamycin), Amp (Ampicillin) and glyphosate of different concentrations, with M9 as a basal culture medium) containing different glyphosate concentrations (0 mM, 1 mM, 10 mM, and 50 mM).
In the above, the E. coli used was double knockout E. coli, namely, EPSPS defective E. coli (E. coli DH5α with EPSPS gene and C-P Lyase gene being knocked out, named as EDCE, wherein for a preparation method thereof, reference can be made to a Chinese invention patent with the filing number CN2016103256926).
The detection method is a method commonly known in the art, and is briefly described as follows: synthesizing the gene encoding the rice EPSPS mutant by using a chemical synthesis method, introducing enzyme sites (Pac1 and Sbf1) at two ends thereof, connecting to an expression vector (for example, a pADV5 vector, the structure of which is shown in FIG. 4) that had undergone the same restriction enzyme digestion treatment under the action of ligase after restriction enzyme digestion, then transforming double knockout E. coli, picking positive colonies after verification, inoculating the positive colonies to a culture medium containing glyphosate for growth, and observing the growth situation.
Results are as shown in FIG. 1 (wherein R0 is a control group, R1 is Experiment Group 1, R2 is Experiment Group 2, and R3 is Experiment Group 3).

[3] = 1X dosage (1060 g/hectare glyphosate), recorded on 10th day
[4] = 2X dosage (2120 g/hectare) sprayed to plants surviving 1X, recorded 10 days later
[5] = 5X dosage (5300 g/hectare) sprayed to plants surviving 2X, recorded 10 days later
[6] = 20X dosage (21200 g/hectare) sprayed to plants surviving 5X, recorded 10 days later

| Molecule | % ++&+++ (percentage of plant having medium and high glyphosate resistance to the total number of plants observed) [1, 3] | number of plants with resistance + (low glyphosate resistance) [1, 3] | number of plants with resistance ++ (medium glyphosate resistance) [1, 3] | number of plants with resistance +++ (high glyphosate resistance) [1, 3] | number of plants with resistance − (no glyphosate resistance) [1, 3] | % ++&+++ (percentage of plant having medium and high glyphosate resistance to the total number of plants observed) [1, 4] | number of plants with resistance + (low glyphosate resistance) [1, 4] | number of plants with resistance ++ (medium glyphosate resistance) [1, 4] | number of plants with resistance +++ (high glyphosate resistance) [1, 4] | number of plants with resistance − (no glyphosate resistance) [1, 4] | % ++&+++ (percentage of plant having medium and high glyphosate resistance to the total number of plants observed) [1, 5] | number of plants with resistance + (low glyphosate resistance) [1, 5] | number of plants with resistance ++ (medium glyphosate resistance) [1, 5] | number of plants with resistance +++ (high glyphosate resistance) [1, 5] | number of plants with resistance − (no glyphosate resistance) [1, 5] | % ++&+++ (percentage of plant having medium and high glyphosate resistance to the total number of plants observed) [1, 6] | number of plants with resistance + (low glyphosate resistance) [1, 6] | number of plants with resistance ++ (medium glyphosate resistance) [1, 6] | number of plants with resistance +++ (high glyphosate resistance) [1, 6] | number of plants with resistance − (no glyphosate resistance) [1, 6] | further results |
| --- | --- | --- | --- | --- | --- | --- | --- | --- | --- | --- | --- | --- | --- | --- | --- | --- | --- | --- | --- | --- | --- |
| B1 | 0.0% | 0 | 0 | 0 | 36 | 0.0% | 0 | 0 | 0 | 36 | 0.0% | 0 | 0 | 0 | 36 | 0.0% | 0 | 0 | 0 | 36 | growth of transformed E. coli (double knockout E. coli): substantially could not grow; glyphosate resistance of transformed rice seedlings (in words) [1]: had no resistance and died |
| B2 | 88.9% | 0 | 0 | 16 | 2 | 27.8% | 5 | 4 | 1 | 8 | 11.1% | 3 | 2 | 0 | 13 | 0.0% | 2 | 0 | 0 | 16 | EPSPS enzyme activity ([2]; concluded from growth of EPSPS defective E. coli at 0 mM glyphosate): normal EPSPS enzyme activity; growth of transformed E. coli ([2]; culture media containing 1 mM glyphosate): obviously grew better than the control group (R0); glyphosate resistance of transformed rice seedlings (in words) [1]: obviously superior to that of the rice seedlings transformed by R0 |
